From US20140044711A1

Key:
[1] = molecular target: Fc receptors on the surface of THP1 cells (Fc bearing human myeloid/monocytic cell line) (human); experiment: FACS, mean fluorescence intensity of AF-647 labeled protein bound to THP1 cells
[2] = molecular target: Fc receptors on the surface of THP1 cells (Fc bearing human myeloid/monocytic cell line) (human); experiment: cell-based or functional assay

RSLV-132 (wthRNase-SCC-mthIgG1 P238S P331S) (Fc fusion)
fold reduction in Fc receptor binding relative to RSLV-124 [1]: > 4 fold

RNase-Fc fusion protein with a mutant Fc (P238S, P331S) (mtRNasemgIgG)
cell death of THP1 cells by FACS, RNase Fc mutant compared to wild type [2]: 3 to 5 fold | fold decrease in cell death of THP1 cells (Annexin V binding and propidium iodide binding), RNase-Fc mutant compared to RNase-wild type Fc fusion protein [2]: 3 fold
